From patent US20210017257A1

Key:
[1] = molecular target: SpA in the cell wall of Staphylococcus aureus (strain ATCC #25923 and clinical isolate OOX) (Staphylococcus aureus) (UniProt P38507); experiment: flow cytometry: S. aureus clinical isolate OOX incubated with biotinylated antibody (negative control), then streptavidin-APC
[2] = molecular target: SpA in the cell wall of Staphylococcus aureus (strain ATCC #25923 and clinical isolate OOX) (Staphylococcus aureus) (UniProt P38507); experiment: flow cytometry: S. aureus strain ATCC #25923 incubated with biotinylated antibody (negative control), then streptavidin-APC
[3] = molecular target: SpA in the cell wall of Staphylococcus aureus (strain ATCC #25923 and clinical isolate OOX) (Staphylococcus aureus) (UniProt P38507); experiment: flow cytometry: S. aureus strain ATCC #25923 by the legend (sheet prints 25935) pre-incubated with human sera for 15 minutes, then biotinylated MABp1-IgG3 (isotype-matched negative control), then streptavidin-APC
[4] = molecular target: SpA in the cell wall of Staphylococcus aureus (strain ATCC #25923 and clinical isolate OOX) (Staphylococcus aureus) (UniProt P38507); experiment: flow cytometry: S. aureus clinical isolate OOX pre-incubated with human sera for 15 minutes, then biotinylated MABp1-IgG3 (isotype-matched negative control), then streptavidin-APC
MABp1-IgG1 [5] = experiment: flow cytometry: S. aureus strain ATCC #25923 incubated with unlabeled MABp1 (negative control), then biotinylated recombinant Fcγ receptor 1, then streptavidin-APC
MABp1-IgG1 [6] = experiment: flow cytometry: S. aureus clinical isolate OOX incubated with unlabeled MABp1 (negative control), then biotinylated recombinant Fcγ receptor 1, then streptavidin-APC

Sequence of biotinylated recombinant Fcγ receptor 1 (P12314 16-292): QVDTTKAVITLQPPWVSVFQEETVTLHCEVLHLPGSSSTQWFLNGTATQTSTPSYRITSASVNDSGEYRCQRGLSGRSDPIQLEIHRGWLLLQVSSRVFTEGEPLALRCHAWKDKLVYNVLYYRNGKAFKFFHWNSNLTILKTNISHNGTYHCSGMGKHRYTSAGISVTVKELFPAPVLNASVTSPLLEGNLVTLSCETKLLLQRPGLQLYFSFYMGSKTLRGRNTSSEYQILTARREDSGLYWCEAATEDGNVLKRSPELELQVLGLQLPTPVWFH
Sequence of MABp1-IgG3 (antibody) (VH): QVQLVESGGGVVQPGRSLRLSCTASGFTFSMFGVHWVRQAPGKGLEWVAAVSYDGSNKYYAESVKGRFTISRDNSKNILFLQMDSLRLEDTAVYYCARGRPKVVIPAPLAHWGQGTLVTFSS
Sequence of MABp1-IgG3 (antibody) (VL): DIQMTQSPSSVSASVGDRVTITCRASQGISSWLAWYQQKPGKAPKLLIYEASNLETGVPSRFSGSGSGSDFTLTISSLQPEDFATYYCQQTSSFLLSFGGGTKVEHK

With MABp1-IgG1 (antibody) the Mean:FL4-H [1] was 29.8 and the Mean:FL4-H [2] was 46.7.

For MABp1-IgG3 (antibody), the Mean:FL4-H [3] was 10.3 and the Mean:FL4-H [4] was 19.1.

For biotinylated recombinant Fcγ receptor 1, the Mean:FL4-H (MABp1-IgG1 [5]) was 19.8 and the Mean:FL4-H (MABp1-IgG1 [6]) was 18.6.
